According to patent publication US20080023859A1, “Glycopeptides and Temperature-Responsive Micelles” (Toagosei Co., Ltd., priority 2003, published 2008):

Test: Measurement of micelle formation by dynamic light scattering (particle diameter)
Format: physicochemical
Details: DLS in solution at various temperatures
Method: The micelle formation was observed by measuring the particle diameter of glycopeptides using dynamic light scattering (DLS; HK-6600 manufactured by Otsuka Electronics Co., Ltd.).
For the solution of Compound 1, the temperature was varied between a temperature range of 15° C. to 35° C. for 15 minutes, the temperature variation was repeated, and the particle diameters were measured at 15° C. and 35° C..

NH2-Val-Pro-Gly-Val-Gly-Val-Pro-Gly-Val-Gly-OH (H-VPGVGVPGVG-OH) [reference peptide molecule]
particle diameter of aggregate (in words): very large particle diameter
